These results are taken from article PMC6386705.

The target in series [1] is T1, HuR RRM3 (human, UniProt Q15717 241-326). Kind of series: NMR.
The target of series [2] is T1, HuR RRM3. Description: NMR. This is another data set of the same source.
The target in series [3] is T1, HuR RRM3. Description: ITC. On the technique in general: Isothermal titration calorimetry measures the heat released or taken up as one component is titrated into another.
Series [4] addresses T2, HuR RRM3 W261E (human, UniProt Q15717 241-326, W261E). Kind of series: ITC.
Another series deals with HuR RRM12 (human, UniProt Q15717 2-189). Kind of series: ITC.
The target in another series is HuR RRM3 FY (human, UniProt Q15717 241-326, F247A;Y249A). Description: NMR.
Series [5] concerns the target T2, HuR RRM3 W261E. Kind of series: NMR.
In series [6] the target is T1, HuR RRM3. Kind of series: ITC. The source holds these as a separate data set.
Series [7] addresses T1, HuR RRM3. Description: NMR. This is another data set of the same source.
Series [8] has as its target T1, HuR RRM3. Kind of series: ITC. The source holds these as a separate data set.
The target of series [9] is T1, HuR RRM3. Description: ITC. The source holds these as a separate data set.
For series [10], the target named is T1, HuR RRM3. Kind of series: ITC. This is another data set of the same source.

Where two headings read alike, the source gives them in different places.

T1 sequence (Q15717 241-326): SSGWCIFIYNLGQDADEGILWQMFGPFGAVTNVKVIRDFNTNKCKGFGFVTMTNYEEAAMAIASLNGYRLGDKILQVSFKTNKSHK
T2 sequence (Q15717 241-326 W261E): as the sequence (Q15717 241-326) above, with W21E counted along it
Sequence of HuR RRM12 (Q15717 2-189): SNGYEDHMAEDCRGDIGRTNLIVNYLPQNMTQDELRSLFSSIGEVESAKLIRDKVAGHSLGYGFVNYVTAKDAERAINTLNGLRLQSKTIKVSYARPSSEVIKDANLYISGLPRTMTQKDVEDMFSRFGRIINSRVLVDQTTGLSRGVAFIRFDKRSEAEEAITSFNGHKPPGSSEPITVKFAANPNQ
Sequence of HuR RRM3 FY (Q15717 241-326 F247A/Y249A): as the sequence (Q15717 241-326) above, with F7A, Y9A counted along it

For AUUAU (ssRNA), the binding result with HuR RRM3 [1] was “binds”.
As to AUUUU (ssRNA), in the series with HuR RRM3 [2], the binding result was “binds”.
As for UUUUUU (ssRNA), binding with HuR RRM3 [3] was put at a Kd of 3.58 ± 0.21 µM. Besides, the binding result with HuR RRM3 W261E [4] is on record as “binds”.
In the case of AUUUUUAUUUU (ssRNA) [c-fos ARE 11-mer], the Kd (as a rule, the constant that tells how readily two partners part at equilibrium) with HuR RRM12 is 0.14 µM; with HuR RRM3 [6], 0.65 µM. Further, the binding result with HuR RRM3 FY is reported as “no binding”; in the series with HuR RRM3 W261E [5] it was “binds”.
Take UUUUU (ssRNA): the binding result in the series with HuR RRM3 [7] is “binds”.
For UUUUA (ssRNA), in the series with HuR RRM3 [2], the binding result is reported as “binds”.
In turn, AUUUUU (ssRNA) registered a Kd in the series with HuR RRM3 [8] of 4.03 ± 0.25 µM.
In the case of UUUAUU (ssRNA), the equilibrium dissociation constant (Kd) with HuR RRM3 [9] worked out at 5.6 ± 0.4 µM.
Take UUAUU (ssRNA): in the series with HuR RRM3 [2], the binding result was “binds”.
With AUUAUU (ssRNA), in the series with HuR RRM3 [10], the Kd was found to be 5.75 ± 0.27 µM.
